The results in this text go back to paper PMC11992040.

Experiment [1] concerns the target SmT2 (CT), T4 foldon-trimerized SARS-CoV-2 spike ectodomain with complex-type N-glycans (SARS-CoV-2 | bacteriophage T4) (UniProt P0DTC2). Kind of experiment: SEC-MALS. A general note: SEC sorts molecules by how far they enter the pores of the column.
Experiment [2] concerns the target SmT1 (CT), resistin-trimerized SARS-CoV-2 spike ectodomain with complex-type N-glycans (SARS-CoV-2 | human) (UniProt P0DTC2). Kind of experiment: SEC.
Experiment [3] addresses SmT2 (HM), T4 foldon-trimerized SARS-CoV-2 spike ectodomain with high-mannose N-glycans (SARS-CoV-2 | bacteriophage T4) (UniProt P0DTC2). Kind of experiment: SEC-MALS.

In general, stoichiometry N refers to the number of molecules, sites or subunits per partner or assembly. For the substance “SmT2 (CT), T4 foldon-trimerized SARS-CoV-2 spike ectodomain with complex-type N-glycans (from UniProt P0DTC2 14-1208)”, the stoichiometry N in experiment [1] is 3.
The substance “SmT1 (CT), resistin-trimerized SARS-CoV-2 spike ectodomain with complex-type N-glycans (from UniProt P0DTC2;Q9HD89-1)” returned a stoichiometry N in experiment [2] of 3.
“SmT2 (HM), T4 foldon-trimerized SARS-CoV-2 spike ectodomain with high-mannose N-glycans (from UniProt P0DTC2 14-1208)”: the stoichiometry N in experiment [3] is 3.
